Test [1] deals with Remicade® (infliximab, reference medicinal product). Nature of the test: ELISA. A general note: In an ELISA, binding on a coated surface is turned into a signal by an enzyme label.
In test [2] the target is CT-P13 (Remsima®, infliximab biosimilar). Nature of the test: ELISA.
The next test deals with FcRn (UniProt P55899). The test can be described thus: SPR. In general terms: Surface plasmon resonance follows binding to a sensor surface in real time, without labels.
Sequence of UniProt P55899 (P55899 whole entry, looked up, tested part not stated): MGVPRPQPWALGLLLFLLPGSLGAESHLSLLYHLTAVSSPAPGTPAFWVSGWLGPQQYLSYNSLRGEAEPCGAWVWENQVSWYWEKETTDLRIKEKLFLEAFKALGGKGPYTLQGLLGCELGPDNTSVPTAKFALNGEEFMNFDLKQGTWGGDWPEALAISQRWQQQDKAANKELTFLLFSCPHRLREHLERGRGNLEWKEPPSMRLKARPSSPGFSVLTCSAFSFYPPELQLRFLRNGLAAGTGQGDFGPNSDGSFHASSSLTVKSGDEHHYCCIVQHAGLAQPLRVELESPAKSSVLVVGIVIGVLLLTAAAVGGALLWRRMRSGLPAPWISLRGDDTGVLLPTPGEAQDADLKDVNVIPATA

With C1q (complex), the values for the relative binding affinity, average (%) in test [1] and in test [2] were 98% and 100%, respectively. “CT-P13 (Remsima®, infliximab biosimilar) (antibody)” came in with a relative binding affinity, average (%) with FcRn of 101%. Same read-out and setting: with “Remicade® (infliximab, reference medicinal product) (antibody)” the figure was 97%.

The record behind these values is paper PMC4622713.
